Biological target: T1, human plasma Kallikrein (Homo sapiens, UniProt P03952)
T1 construct: purchased Stratech, UK
Assay: Phage selections against human plasma Kallikrein (abundance in selection output)
Format: binding
Details: Table 17; relative abundance in the total selection outputs
Procedure: Glycerol stocks of phage libraries were diluted to OD600=0.1 in 500 ml 2YT/chloramphenicol (30 μg/ml) cultures and phage were produced at 30° C. over night (15-16 hrs). Phage were purified and chemically modified as described in Heinis, et al., Nat Chem Biol 2009, 5 (7), 502-7 Biotinylated hPK (3 μg) (IHPKA, from human plasma, Innovative Research, Novi, Mich., USA) was incubated with 50 μl pre-washed magnetic streptavidin beads (Dynal, M-280 from Invitrogen, Paisley, UK) for 10 minutes at RT. Beads were washed 3 times prior to blocking with 0.5 ml washing buffer (10 mM Tris-Cl, pH 7.4, 150 mM NaCl, 10 mM MgCl2, 1 mM CaCl2) containing 1% BSA and 0.1% Tween 20 for 30 minutes at RT with rotation. […] Blocked beads were then mixed with the blocked chemically modified phage and incubated for 30 minutes on a rotating wheel at
RT. Beads were washed 8 times with washing buffer containing 0.1% Tween 20 and twice with washing buffer before incubation with 100 μl of 50 mM glycine, pH 2.2 for 5 minutes. Eluted phage were transferred to 50 μl of 1 M Tris-Cl, pH 8 for neutralization, incubated with 30 ml TG1 cells at OD600=0.4 for 90 minutes at 37° C. and the cells were plated on large 2YT/chloramphenicol plates. One or two additional rounds of panning were performed using the same procedures. In the second round of selection, neutravidin-coated magnetic beads were used to prevent the enrichment of streptavidin-specific peptides. The neutravidin beads were prepared by reacting 0.8 mg neutravidin (Pierce, Rockford, Ill., USA) with 0.5 ml tosyl-activated magnetic beads (Dynal, M-280 from Invitrogen, Paisley, UK) according to the supplier's instructions.
The WPAR (SEQ ID No. 19) motif identified from Example 1 was analysed in the context of the 06-34-03 peptide, in order to identify alternatives or improvements to the WPAR motif. A library was constructed where positions 1, 6, 7, 8, 9 &10 of 06-34-03 were fixed and positions 2, 3, 4 & 5 were randomised (see ‘Randomisation of peptide domains—Library construction’ in Methods above). Selections against human plasma Kallikrein were performed at a variety of stringencies (see Phage selections' in Methods above). All output sequences were identified and analysed for target binding (see ‘Randomisation of peptide domains—Assay of binding of individual clones’ in Methods above). Table 17 lists each unique sequence, its relative abundance in the selection output (frequency), and a rank number according to target binding strength.

T1 sequence (P03952 20-638): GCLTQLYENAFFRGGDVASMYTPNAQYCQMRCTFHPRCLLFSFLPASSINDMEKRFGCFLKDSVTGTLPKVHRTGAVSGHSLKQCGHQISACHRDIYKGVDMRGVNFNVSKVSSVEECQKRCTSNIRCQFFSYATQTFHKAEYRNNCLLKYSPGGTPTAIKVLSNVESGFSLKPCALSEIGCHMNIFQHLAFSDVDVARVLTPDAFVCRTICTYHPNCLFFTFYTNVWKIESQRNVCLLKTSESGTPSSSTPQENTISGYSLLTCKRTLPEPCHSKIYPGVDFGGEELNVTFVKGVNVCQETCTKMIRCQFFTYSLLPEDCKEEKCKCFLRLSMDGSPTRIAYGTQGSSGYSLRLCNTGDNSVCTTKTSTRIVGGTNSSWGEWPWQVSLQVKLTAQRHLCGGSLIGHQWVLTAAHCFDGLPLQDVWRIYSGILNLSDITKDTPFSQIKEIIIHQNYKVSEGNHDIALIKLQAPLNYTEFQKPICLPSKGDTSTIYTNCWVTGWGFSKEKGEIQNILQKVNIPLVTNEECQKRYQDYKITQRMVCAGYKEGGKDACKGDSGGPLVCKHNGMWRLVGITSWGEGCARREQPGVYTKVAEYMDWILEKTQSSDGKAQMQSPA

In order of rising FREQUENCY:
1. CSYPFRCTHQDLC  1
2. CSHPFRCTHQDLC  1
3. CSFPYKCTHQDLC  1
4. CSWPYKCTHQDLC  1
5. CSFMYKCTHQDLC  1
6. CSWHARCTHQDLC  1
7. CSFSYKCTHQDLC  1
8. CRFPFKCTHQDLC  1
9. CSMPYRCTHQDLC  2
10. CSWPARCTHQDLC  24

Source: patent publication US10118947B2, “Modulation of structured polypeptide specificity” (BICYCLE THERAPEUTICS LIMITED, priority 2013, dated 2018)
